# Source: the Human Domainome abundance scans (Beltran et al. 2025)
# ± gives the uncertainty stated by the source.
# B1: Chromodomain-helicase-DNA-binding protein 4, residues 623 to 675; numbered along this chain, Q14839 (parent)
# chain: MIHRILNHSVDKKGHVHYLIKWRDLPYDQASWESEDVEIQDYDLFKQSYWNHR
# B2: LIM and senescent cell antigen-like-containing domain protein 2, residues 13 to 71; numbered along this chain, Q7Z4I7 (parent)
# chain: AVCQRCQARFSPAERIVNSNGELYHEHCFVCAQCFRPFPEGLFYEFEGRKYCEHDFQML
# Variants of: B1
# Test: abundance fitness (aPCA) (normalised: wild type 0, dead -1); higher = more abundant; growth selection in yeast, the domain comes from the species named
# Details: Homo sapiens
row,Variant,abundance fitness
1,M1I,0.148 ± 0.092
2,M1D,-0.452 ± 0.3
3,M1C,-0.25 ± 0.24
4,M1R,-0.265 ± 0.22
5,M1T,-0.117 ± 0.12
6,M1H,-0.462 ± 0.31
7,M1Q,-0.689 ± 0.48
8,M1G,-0.046 ± 0.25
9,M1N,0.277 ± 0.17
10,M1Y,0.226 ± 0.16
11,M1F,-0.004 ± 0.19
12,M1V,-0.015 ± 0.17
13,M1K,0.112 ± 0.15
14,M1S,-0.23 ± 0.16
15,M1L,-0.324 ± 0.14
16,I2V,-0.589 ± 0.1
17,I2T,-0.686 ± 0.099
18,I2Q,-0.931 ± 0.17
19,I2A,-0.978 ± 0.15
20,I2N,-0.751 ± 0.11
21,I2E,-0.54 ± 0.3
22,I2F,-0.945 ± 0.13
23,I2C,-0.662 ± 0.11

row,Variant,abundance fitness
1,I2S,-0.708 ± 0.09
2,I2W,-0.856 ± 0.24
3,I2R,-0.734 ± 0.11
4,I2K,-0.82 ± 0.16
5,I2L,-0.879 ± 0.096
6,I2Y,-0.882 ± 0.16
7,I2M,-0.761 ± 0.13
8,I2G,-0.802 ± 0.12
9,I2H,-0.673 ± 0.11
10,H3M,-0.416 ± 0.14
11,H3D,0.235 ± 0.15
12,H3N,-0.266 ± 0.13
13,H3R,-0.376 ± 0.082
14,H3C,-0.094 ± 0.13
15,H3A,-0.086 ± 0.096
16,H3I,-1.05 ± 0.28
17,H3E,0.437 ± 0.14
18,H3T,-0.282 ± 0.12
19,H3F,-0.392 ± 0.19
20,H3P,-0.741 ± 0.16
21,H3S,-0.047 ± 0.09
22,H3K,-0.56 ± 0.16
23,H3Q,0.045 ± 0.12

# Variants of: B2
# Test: as above
# Details: Homo sapiens
row,Variant,abundance fitness
1,C52P,-0.949 ± 0.17
2,C52G,-0.731 ± 0.084
3,C52N,-0.269 ± 0.27
4,C52M,-0.673 ± 0.13
5,C52Y,-0.49 ± 0.19
6,C52Q,-0.597 ± 0.14
7,C52S,-0.798 ± 0.12
8,C52W,-1.14 ± 0.24
9,C52V,-0.93 ± 0.11
10,C52L,-0.817 ± 0.09
11,C52R,-0.839 ± 0.11
12,C52I,-0.918 ± 0.24
13,C52H,-0.486 ± 0.28
14,C52T,-0.952 ± 0.16
15,D55T,-0.651 ± 0.084
16,D55F,-1.14 ± 0.23
17,D55W,-0.815 ± 0.083
18,D55M,-1.24 ± 0.22
19,D55K,-0.918 ± 0.12
20,D55G,-0.636 ± 0.068
21,D55P,-0.839 ± 0.11
22,D55I,-0.921 ± 0.14
23,D55V,-0.964 ± 0.1
24,D55Q,-0.753 ± 0.12
25,D55E,-0.456 ± 0.088

row,Variant,abundance fitness
1,D55S,-0.667 ± 0.063
2,D55L,-0.933 ± 0.083
3,D55R,-0.747 ± 0.057
4,D55Y,-0.814 ± 0.12
5,D55N,-0.606 ± 0.12
6,D55H,0.018 ± 0.088
7,L59C,-0.033 ± 0.12
8,L59W,-0.348 ± 0.096
9,L59G,0.183 ± 0.14
10,L59Q,-0.069 ± 0.13
11,L59V,0.036 ± 0.098
12,L59S,-0.312 ± 0.083
13,L59R,-0.123 ± 0.085
14,L59A,0.035 ± 0.12
15,L59I,0.099 ± 0.16
16,L59N,-0.676 ± 0.44
17,L59T,-0.141 ± 0.11
18,L59E,-0.373 ± 0.17
19,L59F,-0.616 ± 0.2
20,L59P,-0.235 ± 0.13
21,L59Y,-0.204 ± 0.19
22,H54P,0.034 ± 0.079
23,H54T,0.235 ± 0.078
24,H54I,0.14 ± 0.14
25,H54W,-0.157 ± 0.08

row,Variant,abundance fitness
1,H54Q,0.045 ± 0.08
2,H54N,0.137 ± 0.12
3,H54V,0.036 ± 0.061
4,H54C,0.074 ± 0.16
5,H54K,0.117 ± 0.079
6,H54R,0.108 ± 0.053
7,H54G,0.027 ± 0.067
8,H54E,0.189 ± 0.08
9,H54F,-0.01 ± 0.13
10,H54S,0.094 ± 0.063
11,H54Y,-0.061 ± 0.1
12,H54L,-0.017 ± 0.053
13,H54A,0.064 ± 0.072
14,Q57K,0.006 ± 0.092
15,Q57R,0.107 ± 0.067
16,Q57G,0.118 ± 0.081
17,Q57T,-0.121 ± 0.067
18,Q57H,0.056 ± 0.1
19,Q57D,-0.264 ± 0.12
20,Q57I,-0.295 ± 0.13
21,Q57C,-0.352 ± 0.12
22,Q57A,-0.077 ± 0.089
23,Q57E,-0.052 ± 0.092
24,Q57F,-0.346 ± 0.12
25,Q57V,-0.156 ± 0.069

row,Variant,abundance fitness
1,Q57Y,-0.586 ± 0.17
2,Q57N,0.062 ± 0.11
3,Q57L,-0.331 ± 0.061
4,Q57W,-0.28 ± 0.12
5,Q57S,-0.145 ± 0.074
6,M58A,-0.004 ± 0.14
7,M58G,0.223 ± 0.14
8,M58L,0.04 ± 0.059
9,M58K,0.043 ± 0.092
10,M58H,-0.052 ± 0.18
11,M58C,0.043 ± 0.12
12,M58P,-0.06 ± 0.094
13,M58Y,-0.309 ± 0.16
14,M58N,0.132 ± 0.12
15,M58D,-0.106 ± 0.37
16,M58F,0.154 ± 0.11
17,M58W,-0.055 ± 0.1
18,M58Q,0.013 ± 0.12
19,M58V,0.007 ± 0.094
20,M58R,0.066 ± 0.056
21,M58E,0.061 ± 0.14
22,M58T,0.123 ± 0.077
23,E53H,0.061 ± 0.16
24,E53A,-0.216 ± 0.062
25,E53W,-0.186 ± 0.083

row,Variant,abundance fitness
1,E53K,-0.21 ± 0.089
2,E53I,-0.147 ± 0.16
3,E53C,-0.38 ± 0.12
4,E53N,0.01 ± 0.14
5,E53F,-0.064 ± 0.14
6,E53D,0.169 ± 0.13
7,E53P,-0.359 ± 0.11
8,E53M,-0.286 ± 0.091
9,E53V,-0.39 ± 0.086
10,E53T,-0.235 ± 0.085
11,E53G,-0.25 ± 0.062
12,E53R,-0.027 ± 0.053
13,E53L,-0.207 ± 0.061
14,F56K,-0.757 ± 0.34
15,F56L,-0.091 ± 0.17
16,F56W,-0.364 ± 0.26
17,F56E,-0.648 ± 0.42
18,F56T,-0.114 ± 0.19
19,F56S,-0.105 ± 0.22
20,F56R,-0.361 ± 0.21
21,F56A,-0.316 ± 0.27
